One experiment addresses B.RHPA Env N160K (HIV-1). In words: cell-based or functional assay.
Experiment [1] concerns the target B.RHPA Env T278A R456W (HIV-1). In words: cell-based or functional assay.
The target of another experiment is B.RHPA Env N276A (HIV-1). In words: cell-based or functional assay.
The target of another experiment is B.RHPA Env T278A (HIV-1). In words: cell-based or functional assay.
Experiment [2] has as its target HIV-1 Env (strain and construct not stated). In words: SPR; antibody-Env mixture flowed over immobilized HJ16 (competitor: immobilized HJ16).
Another experiment addresses B.6240 gp120 (HIV-1). In words: not stated (binding of B.6420 gp120 to mAbs).

Turning to HJ16 (antibody), the fold increase in IC50 (neutralization, mutant vs wild type) with B.RHPA Env N160K (HIV-1) was 0.5 fold; in experiment [1] it was more than 1000 fold; with B.RHPA Env N276A (HIV-1), more than 10 fold; in the experiment with B.RHPA Env T278A (HIV-1), more than 10 fold. Also, the percent blocked in experiment [2] came out at 96%.
In the experiment with B.6240 gp120 (HIV-1), PG9 (antibody) registered a quantity not named (value printed after the antibody's name) of 32.1 nM.

The values above are taken from patent publication US11077130.
